Patent publication US20070154481A1 (UCB, published 2007)
Changes are numbered by the printed parent chain. Values joined by “and” are separate entries in the source; they are usually repeats but may differ in a detail not shown here. Equal values may be shown once.

Columns and labels:
Recombinant human IL-6 [1] = target: T1, Recombinant human IL-6 (human, UniProt P05231 29-212); test: BIAcore 3000; mean of the two determinations of Table 1.1
T1 construct: Bought protein; also called human recombinant IL-6; hIL-6
Protocol: (§1) BIA (Biamolecular Interaction Analysis) was performed using a BIAcore 3000 (BIAcore AB). Affinipure F(ab′)₂ Fragment goat anti-human IgG, Fc fragment specific (Jackson ImmunoResearch) was immobilised on a CM5 Sensor Chip via amine coupling chemistry to a capture level of ≈5000 response units (RUs). HBS-EP buffer (10 mM HEPES pH 7.4, 0.15 M NaCl, 3 mM EDTA, 0.005% Surfactant P20, BIAcore AB) was used as the running buffer with a flow rate of 10 μl/min. A 10 μl injection of CA030₋240.g1 at 4 μg/mL was used for capture by the immobilised anti-human IgG-Fc. Human IL-6 was titrated over the captured CAO30₋240.g1 at various concentrations at a flow rate of 30 μL/min. The surface was regenerated by a 10 μL injection of 40 mM HCl, followed by a 5 μL injection of 5 mM NaOH at a flowrate of 10 μL/min.
(§2) Background subtraction binding curves were analysed using the BIAevaluation software (version 3.2) following standard procedures. Kinetic parameters were determined from the fitting algorithm.
One batch of CA030₋240.g1 was used in this study.

Recombinant human IL-6 [2] = target: T1, Recombinant human IL-6; test: BIAcore 3000; IgG4 captured by anti-human Fc F(ab')2, human IL-6 as analyte
Protocol: as §1, §2

Recombinant human IL-6 [3] = target: T1, Recombinant human IL-6; test: cell-based or functional assay
[4] = target: Human mammalian-derived IL-6 (human, UniProt P05231 30-212); test: cell-based or functional assay
[5] = target: T2, Recombinant Rhesus monkey IL-6 (rhesus monkey, UniProt P51494 28-212, limits assumed); test: cell-based or functional assay
T2 sequence (looked up): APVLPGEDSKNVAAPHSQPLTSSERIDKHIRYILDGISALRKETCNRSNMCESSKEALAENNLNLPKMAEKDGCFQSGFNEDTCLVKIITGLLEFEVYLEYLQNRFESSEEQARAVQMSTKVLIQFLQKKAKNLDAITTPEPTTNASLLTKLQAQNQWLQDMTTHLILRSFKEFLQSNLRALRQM

[6] = target: T3, Recombinant cynomologous monkey IL-6 (cynomolgus monkey, UniProt P79341 28-212, limits assumed); test: cell-based or functional assay
T3 sequence (looked up): T2 sequence (looked up) with N11D, N178S

Kd (Recombinant human IL-6 [1]): 9.76 pM
Kd (Recombinant human IL-6 [2]): 10.5 pM and 9.02 pM
koff (Recombinant human IL-6 [2]): 7.68e-06 s⁻¹
kon (Recombinant human IL-6 [2]): 731000 M⁻¹ s⁻¹ and 852000 M⁻¹ s⁻¹
ND50, inhibition of IL-6 induced proliferation of T1165 cells (Recombinant human IL-6 [3]): 1.1 ng/ml and 7.26 pM
ND50, inhibition of IL-6 induced proliferation of T1165 cells [4]: 3.6 ng/ml and 23.8 pM
ND50, inhibition of IL-6 induced proliferation of T1165 cells [5]: 2.2 ng/ml and 14.5 pM
ND50, inhibition of IL-6 induced proliferation of T1165 cells [6]: 5.4 ng/ml and 35.6 pM
B1: CA030-00240.g1 whole IgG4 (antibody, V domains shown)
VH: EVQLVESGGGLVQPGGSLRLSCAASGFNFNDYFMNWVRQAPGKGLEWVAQMRNKNYQYGTYYAESLEGRFTISRDDSKNSLYLQMNSLKTEDTAVYYCARESYYGFTSYWGQGTLVTVSS
VL: DIQMTQSPSSLSASVGDRVTITCQASQDIGISLSWYQQKPGKAPKLLIYNANNLADGVPSRFSGSGSGTDFTLTISSLQPEDFATYYCLQHNSAPYTFGQGTKLEIKR
notes: Made in CHO cells; also called CA030-240.g1; CA030_240.g1
